Experimental data taken from the supplement of paper PMC9732359.
± gives the uncertainty stated by the source.

Assay: protein stability index of a GFP-peptide fusion (yeast GPS) (PSI 1-4); higher = more stable; sorted into four equal gates, so the index is relative within each strain
Procedure, shortened: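 The protein stability index combines read frequencies across sorting gates, each weighted by its gate number and then summed. To obtain those frequencies, a pooled yeast library of GFP fusions to tiled 17-residue yeast protein peptides, on a plasmid also expressing Cherry, was grown to mid-log phase in leucine-free medium. The cells were sorted into four equal gates by GFP/Cherry ratio before plasmid amplification by PCR and Illumina sequencing.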

Row | Sequence | protein stability index (doa10∆) | protein stability index (pdr5∆) | protein stability index (san1∆) | protein stability index (ubr1∆)
1 | TINGKVNGRTKSNTIPV [GAL11] | 3 ± 0.091 | 2.77 ± 0.12 | 3.02 ± 0.099 | 3.19 ± 0.097
2 | WGMEPLEDYVPHQSPDA [RPB2] | 2.85 ± 0.11 | 3.3 ± 0.13 | 2.98 ± 0.081 | 2.98 ± 0.076
3 | GEALPNKFHKSIREDIL [SIR2] | 3.16 ± 0.14 | 3.04 ± 0.11 | 2.7 ± 0.096 | 2.76 ± 0.07
4 | SAPPPALPHVEINQVSL [RGR1] | 2.46 ± 0.074 | 2.96 ± 0.11 | 2.48 ± 0.09 | 2.33 ± 0.052
5 | GNAVTVTEDGTVVTVVS [RPL22A] | 1.38 ± 0.044 | 1.67 ± 0.078 | 1.45 ± 0.11 | 1.84 ± 0.065
6 | VSKEGLYQLVDIRDSSC [YMR129W/POM152] | 2.83 ± 0.099 | 2.92 ± 0.084 | 2.7 ± 0.06 | 2.84 ± 0.05
7 | DSLTRAVKDQQKYTKEM [SNF2] | 1.47 ± 0.19 | 1.8 ± 0.11 | 1.25 ± 0.15 | –
8 | DNVNSTTGSIFEKDLMA [BRN1] | 2.98 ± 0.067 | 3.01 ± 0.068 | 3.07 ± 0.071 | 2.99 ± 0.041
9 | KRLIAHDWLNALDGDLI [YCG1] | 2.18 ± 0.17 | 2.9 ± 0.16 | 2.6 ± 0.17 | 3.23 ± 0.081
10 | IVAQSEVEVSTRDLFDL [RPO31] | 3.07 ± 0.074 | 3.34 ± 0.083 | 3.3 ± 0.059 | 3.2 ± 0.067
11 | NDLRDMILNYNPSQGVS [UBP6] | 2.21 ± 0.072 | 3.23 ± 0.12 | 3.16 ± 0.077 | 3.18 ± 0.064
12 | NSISDFLGEQVNEPTKN [RPN1] | 3.32 ± 0.12 | 3.15 ± 0.13 | 3.34 ± 0.1 | 3.18 ± 0.091
13 | PHLPFSKSENPVLSTIA [SWI3] | 1.95 ± 0.049 | 2.04 ± 0.048 | 2.03 ± 0.062 | 2.05 ± 0.028
14 | YSEHLKPYDINVVLVTN [DIS3] | 1.77 ± 0.071 | 2.98 ± 0.094 | 2.86 ± 0.066 | 2.47 ± 0.055
15 | VAGAGAASGAAAAGGDA [RPP1B] | 3.09 ± 0.18 | 2.79 ± 0.092 | 3.22 ± 0.22 | 2.62 ± 0.078
16 | NVNETMSRSLANGIINV [SMC3] | 2.75 ± 0.074 | 2.76 ± 0.061 | 2.96 ± 0.081 | 2.73 ± 0.057
17 | KRYANHTQDIIGGMRVD [RET1] | 3.11 ± 0.069 | 3.41 ± 0.075 | 3.19 ± 0.049 | 3.37 ± 0.049
18 | AVAHHTDCKFIRVSGAE [RPT6] | 3.04 ± 0.13 | 3.21 ± 0.16 | 3.19 ± 0.14 | 2.92 ± 0.11
19 | QQQLVNQMKVAPIPKQL [GAL11] | 2.94 ± 0.046 | 2.96 ± 0.041 | 2.974 ± 0.026 | 2.63 ± 0.038
20 | IVNVNFMKSVIRSREAF [DIS3] | 2.75 ± 0.065 | 2.77 ± 0.062 | 2.2 ± 0.098 | 2.31 ± 0.04
21 | YPVRIPRLDTSKEFSAY [YJR042W/NUP85] | 2.84 ± 0.077 | 2.4 ± 0.061 | 2.51 ± 0.075 | 2.91 ± 0.058
22 | SLMSSQNKLFYITNADD [SIR3] | 2.77 ± 0.15 | 2.02 ± 0.12 | 3.07 ± 0.16 | 1.49 ± 0.095
23 | TSRVTGILLLDSLIQLA [YJL039C/NUP192] | 1.85 ± 0.062 | 1.77 ± 0.056 | 1.59 ± 0.094 | 1.95 ± 0.048
24 | INSDNQNIILRSTMMKF [RPN3] | 2.82 ± 0.092 | 2.81 ± 0.086 | 2.77 ± 0.11 | 2.9 ± 0.059
25 | DNGGTILGIAGEDFAVL [PRE7] | 3.46 ± 0.099 | 3.08 ± 0.13 | 3.34 ± 0.14 | 3.47 ± 0.052
26 | NPYNTRSNKIKVVKTPG [RPL34A] | 1.98 ± 0.065 | 1.93 ± 0.045 | 2.16 ± 0.08 | 2.15 ± 0.039
27 | GGSNYMSNLPFGLGYGD [RPC31] | 2.83 ± 0.28 | 3.15 ± 0.19 | – | 3.16 ± 0.18

Row | Sequence | protein stability index (doa10∆) | protein stability index (pdr5∆) | protein stability index (san1∆) | protein stability index (ubr1∆)
28 | RTTTNTTAEPKAKRAKT [TAF14] | 2.67 ± 0.28 | 2.98 ± 0.25 | 3.1 ± 0.088 | 2.59 ± 0.2
29 | WEISNPDFLSKYSAITS [NUT1] | 1.54 ± 0.045 | 2.06 ± 0.044 | 1.51 ± 0.073 | 1.59 ± 0.041
30 | EFFHLQHYLDTATAPRL [QCR6] | 2.98 ± 0.057 | 3.03 ± 0.043 | 2.72 ± 0.058 | 3 ± 0.069
31 | AYGVLDSNYKWDLSVED [PRE2] | 3 ± 0.073 | 2.94 ± 0.083 | 3.26 ± 0.086 | 3.42 ± 0.056
32 | EDTLSGYDPIVSTRAID [PRP28] | 2.51 ± 0.2 | 2.67 ± 0.12 | 3.13 ± 0.15 | 3.16 ± 0.093
33 | IGGSLARIALRHLEKEG [RPS25A] | 2.52 ± 0.068 | 2.5 ± 0.054 | 1.82 ± 0.082 | 2.51 ± 0.06
34 | VNEDPIFHPMIHYSWSF [YML103C/NUP188] | 2.56 ± 0.056 | 2.46 ± 0.039 | 2.42 ± 0.045 | 2.49 ± 0.046
35 | DLEEAYATQVKTDNTVD [RPT3] | 2.19 ± 0.18 | 2.58 ± 0.091 | 2.47 ± 0.14 | 2.79 ± 0.1
36 | DVRRLKKNVWRSINNLI [BRN1] | 2.62 ± 0.29 | 1.9 ± 0.11 | 1.06 ± 0.15 | 1.1 ± 0.063
37 | LDRRFEIFFKKDSLWQS [FAS1] | 3.15 ± 0.13 | 3.16 ± 0.11 | 2.52 ± 0.26 | 2.91 ± 0.061
38 | QRKNIQSLELMIYDDAH [BRR2] | 2.39 ± 0.047 | 2.61 ± 0.051 | 2.54 ± 0.066 | 2.46 ± 0.049
39 | PSASLKLHHDLKLCLGD [YMR129W/POM152] | 3.06 ± 0.073 | 3.09 ± 0.07 | 2.92 ± 0.083 | 3.03 ± 0.054
40 | PNETSEIAQANSRNAIR [RPL19A] | 2.7 ± 0.15 | 2.92 ± 0.095 | 2.54 ± 0.14 | 3.05 ± 0.13
41 | LQKQMGIGSLTDLMSIV [RPC34] | 1.91 ± 0.11 | 2.04 ± 0.13 | 2.68 ± 0.12 | 1.86 ± 0.14
42 | VSKKWAAAAVCEKWAAS [RPL14A] | 2.42 ± 0.083 | 3.04 ± 0.15 | 2.6 ± 0.094 | 2.17 ± 0.077
43 | EAESLLQFHVATYMDND [RPO21] | 2.82 ± 0.1 | 2.7 ± 0.13 | 2.7 ± 0.073 | 2.94 ± 0.15
44 | SSNPLGITGNLDRIPMH [COB] | 2.62 ± 0.098 | 2.52 ± 0.077 | 2.44 ± 0.065 | 2.49 ± 0.094
45 | IIELPNEKFEIELLSLD [SRB4] | 2.68 ± 0.056 | 2.99 ± 0.066 | 2.84 ± 0.052 | 2.68 ± 0.048
46 | FLSSFDDVLQTIITDCA [YJL039C/NUP192] | 2.43 ± 0.045 | 2.07 ± 0.049 | 2.03 ± 0.062 | 2.38 ± 0.034
47 | NAKDKERLQLLEDVVGA [SMC3] | 3.32 ± 0.19 | 3.38 ± 0.13 | 3.01 ± 0.071 | 3.21 ± 0.11
48 | PNHNSPVVINLDAKNKV [RPO31] | 2.92 ± 0.16 | 3.08 ± 0.19 | – | 3.03 ± 0.24
49 | GTLDINPDDDYGFKQEI [FAS1] | 3.12 ± 0.26 | 3.21 ± 0.15 | 2.79 ± 0.099 | 3.04 ± 0.086
50 | LPYERHMISQEGIKETQ [SWI1] | 1.22 ± 0.066 | 1.23 ± 0.073 | 1.3 ± 0.14 | 1.27 ± 0.065
51 | PRFNRDNKVSPAAAAKK [RPS26B] | 2.41 ± 0.12 | 2.5 ± 0.21 | 2.61 ± 0.11 | 2.76 ± 0.12
52 | IGGSDAAFEKRYRVDLL [RPO21] | 3.32 ± 0.074 | 3.39 ± 0.067 | 3.25 ± 0.04 | 3.32 ± 0.053
53 | ITRLCQTLGLESFTEEL [MED1] | 2.54 ± 0.054 | 2.81 ± 0.063 | 1.59 ± 0.16 | 2.51 ± 0.056
